The values that follow come from patent US11499200B2, “Methods for determining resistance or susceptibility to HIV entry inhibitors” (Monogram Biosciences, Inc., priority 2005, dated 2022).

The test system of experiment [1] is HIV-1 particles pseudotyped with patient-derived or chimeric envelope proteins (gp160). The experiment in a line: Cell based HIV-1 entry assay (pseudotyped virus, luciferase): entry inhibitor susceptibility. The conditions noted are these: FIG. 6; compared with sensitivity to B4. On the procedure:
In this embodiment, drug susceptibility, co-receptor tropism and virus neutralization testing are performed by co-transfecting a host cell with pHIVenv and pHIVlucΔU3. The host cell produces HIV particles that are pseudo-typed with HIV envelope sequences derived from the test virus or subject sample. Virus particles are collected (˜48 h) after transfection and are used to infect target cells that express HIV receptors (e.g. CD4) and co-receptors (e.g. CXCR4, CCR5). After infection (˜72 h) the target cells are lysed and luciferase activity is measured. HIV must complete one round of replication to successfully infect the target host cell and produce luciferase activity. […]
Drug susceptibility testing was performed using pHIVenv and pHIVluc or pHIVlucΔU3. […] After infection (˜72 h) the target cells are lysed and luciferase activity is measured. […] The amount of luciferase activity detected in the infected cells is used as a direct measure of “infectivity” (FIGS. 1 and 2). […] Drug susceptibility is assessed by comparing the infectivity in the absence of drug to infectivity in the presence of drug. Relative drug susceptibility can be quantified by comparing the susceptibility of the “test” virus to the susceptibility of a well-characterized reference virus (wildtype) derived from a molecular clone of HIV-1, for example NL4-3 or HXB2. […]

The target of experiment [2] is clone 3 of FIG. 6 envelope protein with the wild-type residue at position 261 (HIV-1). The experiment in a line: cell-based or functional assay.
The target in experiment [3] is clone 3 of FIG. 6 envelope protein (clone 11 of FIGS. 7-9), with L261S (HIV-1). Briefly: cell-based or functional assay.

With “TNX-355: HIV entry inhibitor under investigation (Tanox Inc.), listed as CD4 binding site entry inhibitor”, the “sensitivity to entry inhibitor, sixteen clones of one patient” value in experiment [1] was “varied inversely to sensitivity to B4”.

For “PRO542 (from UniProt P01730 26-204) (receptor)”, the IC50 of PRO542, log-sigmoid inhibition curves of the entry assay in experiment [2] worked out at 0.9 µg/ml; in experiment [3], 11 µg/ml.
